Measured values from patent publication US20210070843A1.
Positions count from the first letter of the chain named.

B1: S06 (antibody, V domains shown)
VH: EVQLVESGGGLVQPGGSLRLSCAASGFTIGGGWIHWVRQAPGKGLEWVAFIGPYGGSTFYADSVKGRFTISADTSKNTAYLQMNSLRAEDTAVYYCARFNFGFWNHMDYWGQGTLVTVSS
VL: DIQMTQSPSSLSASVGDRVTITCRASQDVSSWVAWYQQKPGKAPKLLIYGTTFLHSGVPSRFSGSGSGTDFTLTISSLQPEDFATYYCQQYYNGPLTFGQGTKVEIKR
B2: S45 (antibody, V domains shown)
VH: EVQLVESGGGLVQPGGSLRLSCAASGFTINGSSIHWVRQAPGKGLEWVAYIGPFGGSTYYADSVKGRFTISADTSKNTAYLQMNSLRAEDTAVYYCARFWHGYNLYMDYWGQGTLVTVSS
VL: B1 VL with S30G, S31W, T51A, T52R, H55Y, Y92F
B3: P58 (antibody, V domains shown)
VH: EVQLVESGGGLVQPGGSLRLSCAASGFTIGGGGIHWVRQAPGKGLEWVAWIWPYWGYTYYADSVKGRFTISADTSKNTAYLQMNSLRAEDTAVYYCARFNSYSYSGVMDYWGQGTLVTVSS
VL: DIQMTQSPSSLSASVGDRVTITCRASQDVYSYVAWYQQKPGKAPKLLISSSRGLYSGVPSRFSGSGSGTDFTLTISSLQPEDFATYYCQQYSSFPITFGQGTKVEIKR
B4: S29 (antibody, V domains shown)
VH: EVQLVESGGGLVQPGGSLRLSCAASGFTISDYWIHWVRQAPGKGLEWVASIWPSGGYTYYADSVKGRFTISADTSKNTAYLQMNSLRAEDTAVYYCARFNWIVGHYMDYWGQGTLVTVSS
VL: B1 VL with S30F, S31G, W32G, G50W, T51S, T52S, F53W, H55Y, N93D, L96I
B5: P03 (antibody, V domains shown)
VH: EVQLVESGGGLVQPGGSLRLSCAASGFTIDSFGIHWVRQAPGKGLEWVAFIGPFGGSTFYADSVKGRFTISADTSKNTAYLQMNSLRAEDTAVYYCARFDSNSYSYHGIMDYWGQGTLVTVSS
VL: B3 VL with Y30W, S31G, S50W, R52G, G53S, S92Y, S93N, F94W, I96V

How the values were obtained:
[1] = biological target: recombinant H5N1 VN/04 HA trimer (hemagglutinin ectodomain of A/Vietnam/1203/2004) (influenza A virus A/Vietnam/1203/2004 (H5N1)); assay: ELISA, coated HA
[2] = biological target: full-length H1 A/California/07/2009 HA expressed on 293T cells (influenza A virus A/California/07/2009 (H1N1)); assay: cell-based or functional assay
[3] = biological target: H7 A/Anhui/1-BALF_RG17/2013 HA on H7N9 AH/13 pseudo virus (influenza A virus A/Anhui/1-BALF_RG17/2013 (H7N9)); assay: cell-based or functional assay
[4] = biological target: full-length H5 A/Vietnam/1203/2004 HA expressed on 293T cells (influenza A virus A/Vietnam/1203/2004 (H5N1)); assay: cell-based or functional assay
[5] = biological target: cell surface-expressed H3N2 WN/05 HA trimer (influenza A virus A/Wisconsin/67/2005 (H3N2)); assay: cell-based or functional assay
[6] = biological target: full-length H1 A/California/07/2009 HA expressed on 293T cells (influenza A virus A/California/07/2009 (H1N1)); assay: flow cytometry, HA-expressing 293T
[7] = biological target: full-length H5 A/Vietnam/1203/2004 HA expressed on 293T cells (influenza A virus A/Vietnam/1203/2004 (H5N1)); assay: flow cytometry, HA-expressing 293T
[8] = biological target: cell surface-expressed H3N2 WN/05 HA trimer (influenza A virus A/Wisconsin/67/2005 (H3N2)); assay: flow cytometry, HA-expressing 293T
[9] = biological target: recombinant H7N9 AH/13 HA trimer (hemagglutinin ectodomain of A/Anhui/1-BALF_RG17/2013) (influenza A virus A/Anhui/1-BALF_RG17/2013 (H7N9)); assay: ELISA, coated HA

Binder | EC50 [1] [µg/mL] | IC50 of pseudo virus neutralization H1N1 CA/09 [2] [µg/mL] | IC50 of true virus neutralization H1N1 CA/09 [2] [µg/mL] | IC50 of pseudo virus neutralization H7N9 AH/13 [3] [µg/mL] | IC50 of pseudo virus neutralization H5N1 VN/04 [4] [µg/mL] | IC50 of pseudo virus neutralization H3N2 WN/05 [5] [µg/mL] | EC50 [6] [µg/mL] | max. MFI [6] [MFI] | max. MFI [7] [MFI] | max. MFI [8] [MFI] | EC50 [8] [µg/mL] | EC50 [9] [µg/mL] | EC50 [7] [µg/mL]
B1 | 0.311 | > 100 | > 500 | > 200 | > 200 | > 20 | 3.98 | 1650 | 249 | 135 | – | – | –
B2 | 0.23 | > 100 | > 500 | > 200 | > 200 | > 20 | 4.47 | 2470 | 451 | 529 | 15.8 | – | –
B3 | > 10 | > 100 | > 500 | > 200 | > 200 | > 20 | 0.25 | 6290 | 6710 | 697 | 3.58 | 0.504 | 0.366
B4 | > 10 | 0.672 | > 500 | > 200 | > 200 | > 20 | 4.22 | 6280 | 367 | 188 | – | – | –
B5 | > 10 | > 100 | > 500 | > 200 | > 200 | > 20 | 0.494 | 6020 | 216 | 147 | – | – | –
